Test results: paper PMC6289849 (The Journal of steroid biochemistry and molecular biology, 2018)
Where two headings read alike, the source gives them in different places.

Legend:
human STS [1] = target: T1, human STS (Homo sapiens, UniProt P08842); assay: HPLC of released estrone; format: biochemical; conditions: 5 μM E1-sulfate, 37°C, 15 min, pH 7.0, 10 mM Ca2+; irreversible inhibitor
T1 sequence (P08842 22-583): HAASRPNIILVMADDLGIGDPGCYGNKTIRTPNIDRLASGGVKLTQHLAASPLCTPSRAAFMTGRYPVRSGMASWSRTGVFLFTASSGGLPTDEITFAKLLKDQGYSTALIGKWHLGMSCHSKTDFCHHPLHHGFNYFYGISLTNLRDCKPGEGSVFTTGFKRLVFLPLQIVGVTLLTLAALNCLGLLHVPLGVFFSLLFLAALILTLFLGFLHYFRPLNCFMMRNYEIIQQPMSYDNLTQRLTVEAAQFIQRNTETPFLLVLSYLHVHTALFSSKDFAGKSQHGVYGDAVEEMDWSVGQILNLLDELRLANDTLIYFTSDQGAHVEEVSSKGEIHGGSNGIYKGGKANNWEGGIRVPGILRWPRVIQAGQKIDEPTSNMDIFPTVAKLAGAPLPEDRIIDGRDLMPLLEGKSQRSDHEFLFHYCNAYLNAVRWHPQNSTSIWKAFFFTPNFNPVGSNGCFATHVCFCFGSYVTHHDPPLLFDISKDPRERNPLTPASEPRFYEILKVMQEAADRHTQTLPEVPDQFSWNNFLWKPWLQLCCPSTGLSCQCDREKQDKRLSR

[2] = target: zebrafish Sts (zfSts, zfSts_tv1) (Danio rerio, UniProt A0ACD6B647, I88V/L437F/N388K); assay: HPLC of released estrone; format: biochemical; conditions: read-out: % inhibition at 0.1 μM
Sequence of zebrafish Sts (zfSts, zfSts_tv1) (Danio rerio, UniProt A0ACD6B647, I88V/L437F/N388K) (A0ACD6B647 21-584, stated change not applied): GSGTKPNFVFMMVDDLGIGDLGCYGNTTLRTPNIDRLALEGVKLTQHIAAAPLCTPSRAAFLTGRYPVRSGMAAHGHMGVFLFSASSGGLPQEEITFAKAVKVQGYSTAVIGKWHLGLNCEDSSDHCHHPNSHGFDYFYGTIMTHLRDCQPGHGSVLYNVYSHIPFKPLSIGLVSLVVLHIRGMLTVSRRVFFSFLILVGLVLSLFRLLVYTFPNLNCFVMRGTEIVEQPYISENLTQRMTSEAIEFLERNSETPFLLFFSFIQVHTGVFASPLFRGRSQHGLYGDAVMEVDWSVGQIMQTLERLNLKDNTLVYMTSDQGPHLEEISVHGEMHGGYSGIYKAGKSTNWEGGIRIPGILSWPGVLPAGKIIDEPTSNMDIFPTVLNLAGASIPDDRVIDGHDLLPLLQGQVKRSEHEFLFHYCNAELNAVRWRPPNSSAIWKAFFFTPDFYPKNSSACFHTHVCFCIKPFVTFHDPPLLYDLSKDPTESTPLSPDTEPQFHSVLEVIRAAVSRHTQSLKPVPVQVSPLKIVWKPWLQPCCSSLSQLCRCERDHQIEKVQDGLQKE

[3] = tested on: CC(=O)[C@H]1CC[C@H]2[C@@H]3CC=C4C[C@@H](OS(=O)(=O)O)CC[C@]4(C)[C@H]3CC[C@]12C; assay: cells, lysate or membranes; conditions: 28°C, pH 7.0 Hepes, 10 mM Ca2+, 1 mM DTT, labelled compound
[4] = tested on: CC(C)CCC[C@@H](C)[C@H]1CC[C@H]2[C@@H]3CC=C4C[C@@H](OS(=O)(=O)O)CC[C@]4(C)[C@H]3CC[C@]12C; assay: cells, lysate or membranes; conditions: 28°C, pH 7.0 Hepes, 10 mM Ca2+, 1 mM DTT, labelled compound
[5] = tested on: C[C@]12CC[C@@H]3c4ccc(OS(=O)(=O)O)cc4CC[C@H]3[C@@H]1CCC2=O; assay: cells, lysate or membranes; conditions: 28°C, pH 7.0 Hepes, 10 mM Ca2+, 1 mM DTT, labelled compound
[6] = tested on: [H][C@@]12CC=C3C[C@@H](OS(=O)(=O)O)CC[C@]3(C)[C@@]1([H])CC[C@]1(C)C(=O)CC[C@@]21[H]; assay: cells, lysate or membranes; conditions: 28°C, pH 7.0 Hepes, 10 mM Ca2+, 1 mM DTT, labelled compound
[7] = tested on: [H][C@@]12CCc3cc(OS(=O)(=O)O)ccc3[C@@]1([H])CC[C@]1(C)[C@@H](O)CC[C@@]21[H]; assay: cells, lysate or membranes; conditions: 28°C, pH 7.0 Hepes, 10 mM Ca2+, 1 mM DTT, labelled compound
[8] = target: zebrafish Sts (zfSts, zfSts_tv1) (Danio rerio, UniProt A0ACD6B647); assay: HPLC of released estrone; format: biochemical; conditions: 5 μM E1-sulfate, 28°C, 15 min, pH 7.0, 10 mM Ca2+; irreversible inhibitor
Sequence of zebrafish Sts (zfSts, zfSts_tv1) (Danio rerio, UniProt A0ACD6B647) (A0ACD6B647 21-584): as the sequence (A0ACD6B647 21-584, stated change not applied) above

human STS [9] = target: T1, human STS; conditions: 5 μM E1-sulfate, 37°C, 15 min, pH 7.0, 10 mM Ca2+; irreversible inhibitor

## NS(=O)(=O)Oc1ccc2c3c(c(=O)oc2c1)CCCCC3 [STX64]
Human STS [1]
  % inhibition at 0.1 μM: 93%
[2]
  inhibition at 0.1 µM: 88.3%

## zebrafish Sts (zfSts, zfSts_tv1) (Danio rerio; I88V/L437F/N388K)
[3]
  Km: 0.18 ± 0.01 µM
  Vmax: 0.000104 µmol/min/mg
[4]
  Km: 0.62 ± 0.06 µM
  Vmax: 8.12e-05 µmol/min/mg
[5]
  Km: 4.32 ± 0.49 µM
  Vmax: 0.00126 µmol/min/mg
[6]
  Km: 19.38 ± 3.07 µM
  Vmax: 0.000374 µmol/min/mg
[7]
  Km: 2.07 ± 0.29 µM
  Vmax: 0.00107 µmol/min/mg

## C[C@]12CC[C@@H]3c4ccc(OS(N)(=O)=O)cc4CC[C@H]3[C@@H]1CCC2=O [EMATE]
[8]
  % inhibition at 0.1 μM: EMATE also inhibited the activity zebrafish Sts_tv1 and human STS
Human STS [9]
  % inhibition at 0.1 μM: EMATE also inhibited the activity zebrafish Sts_tv1 and human STS
